Bridge positions count the residues as written; N and C are the ends. Square brackets hold non-standard residues; d marks the D form. Peptide text beside a SMILES is read from it. * marks the point of attachment. NOTA = O=C(O)CN1CCN(CC(=O)O)CCN(CC(=O)*)CC1; Nle = CCCC[C@H](N)C(=O)O; AEEA = NCCOCCOCC(=O)O
Assay: in vivo
Parameters: species or system Sprague-Dawley rats
Conditions: rat; for SUV at 2 h / SUV at 5 min / SUV at 10 min / SUV at 40 min / SUV at 1 h / SUV at 0.5 h: Sprague-Dawley, iv, total radioactivity
Experimental: Sixteen male (n = 10; 363.3 ± 19.6 g) and female (n = 6; 199.2 ± 5.5 g) Sprague–Dawley rats were used for ex vivo organ distribution of the [^68Ga]Ga-NO2A-[Nle13]-Col for the subsequent extrapolation and calculation of human dosimetry. The male and female animals were administered into the tail vein with, respectively, 2.3 ± 0.8 MBq and 1.4 ± 0.5 MBq, sacrificed at 5, 10, 30, 40, 60, and 120 min post administration, and the organs were harvested, weighted, and measured for their radioactivity content. Samples from the blood, heart, lung, liver, spleen, adrenal glands, kidneys, intestines with or without contents, muscle, testis, bone, brain, pancreas, urine bladder, and bone marrow were collected. To monitor radioactivity elimination and recovery, the radioactivity of the remaining carcass was also measured. The radioactivity measurements were corrected for decay and converted into standardized uptake values (SUVs, Table S2) according to Equation (2), wherein the radioactivity is expressed in MBq and the weight in grams:(2) SUV=Radioactivityorgan∗weightrat/Radioactivityinjected∗weightorgan

[1] = male, SUV large intestine without content (INL-)
[2] = male, SUV small intestine with its content (INS+)

CCCC[C@@H]1NC(=O)[C@H](C(C)C)NC(=O)[C@H](CCCNC(=N)N)NC(=O)CNC(=O)[C@@H]2CCCN2C(=O)[C@@H](NC(=O)COCCOCCNC(=O)CN2CCN(CC(=O)O)CCN(CC(=O)O)CC2)CSSC[C@@H](C(=O)O)NC(=O)[C@@H]2CCCN2C(=O)CNC(=O)[C@H](CCC(=O)O)NC(=O)[C@H](CC(=O)O)NC(=O)[C@H](CC(=O)O)NC(=O)CNC(=O)[C@H](CC(C)C)NC(=O)[C@H](Cc2c[nH]cn2)NC(=O)[C@H](CC(C)C)NC(=O)CNC(=O)[C@H](Cc2c[nH]cn2)NC1=O [[^68Ga]Ga-NO2A-[Nle^13]-Col, [^68Ga]Ga-NOTA-PEG2-c[CPGRVNleHGLHLGDDEGPC], metal not drawn] ({NOTA-AEEA}-CPGRV[Nle]HGLHLGDDEGPC-OH; disulfide 1-18)
SUV at 2 h (female, SUV spleen (SP)): 0.066 SUV | SUV at 5 min (male, 2.3 MBq, SUV blood (BL)): 2.22 SUV | SUV at 10 min (male, 2.3 MBq, SUV blood (BL)): 1.53 SUV | SUV at 40 min (male, 2.3 MBq, SUV heart (HE)): 0.225 SUV | SUV at 1 h (male, 2.3 MBq, SUV heart (HE)): 0.123 SUV | SUV at 2 h (male, 2.3 MBq, SUV heart (HE)): 0.024 SUV | SUV at 5 min (male, 2.3 MBq, SUV liver (LI)): 0.478 SUV | SUV at 10 min (male, 2.3 MBq, SUV liver (LI)): 0.308 SUV | SUV at 0.5 h (male, 2.3 MBq, SUV liver (LI)): 0.193 SUV | SUV at 40 min (male, 2.3 MBq, SUV liver (LI)): 0.198 SUV | SUV at 1 h (male, 2.3 MBq, SUV liver (LI)): 0.112 SUV | SUV at 2 h (male, 2.3 MBq, SUV liver (LI)): 0.0624 SUV | SUV at 1 h (male, 2.3 MBq, SUV lungs (LU)): 0.217 SUV | SUV at 2 h (male, 2.3 MBq, SUV lungs (LU)): 0.0955 SUV | SUV at 5 min (male, SUV TE (testis)): 0.354 SUV | SUV at 10 min (male, SUV TE (testis)): 0.318 SUV | SUV at 0.5 h (male, SUV TE (testis)): 0.216 SUV | SUV at 40 min (male, SUV TE (testis)): 0.245 SUV | SUV at 1 h (male, SUV TE (testis)): 0.118 SUV | SUV at 2 h (male, SUV TE (testis)): 0.0322 SUV | SUV at 5 min (male, SUV adrenals (AD)): 0.82 SUV | SUV at 10 min (male, SUV adrenals (AD)): 0.549 SUV | SUV at 0.5 h (male, SUV adrenals (AD)): 0.464 SUV | SUV at 40 min (male, SUV adrenals (AD)): 0.284 SUV | SUV at 1 h (male, SUV adrenals (AD)): 0.494 SUV | SUV at 2 h (male, SUV adrenals (AD)): 0.249 SUV | SUV at 5 min (male, SUV bladder (UB)): 2.51 SUV | SUV at 10 min (male, SUV bladder (UB)): 3.13 SUV | SUV at 0.5 h (male, SUV bladder (UB)): 5.01 SUV | SUV at 40 min (male, SUV bladder (UB)): 2.8 SUV | SUV at 1 h (male, SUV bladder (UB)): 3.73 SUV | SUV at 2 h (male, SUV bladder (UB)): 0.896 SUV | SUV at 0.5 h (male, SUV blood (BL)): 0.8 SUV | SUV at 40 min (male, SUV blood (BL)): 0.624 SUV | SUV at 1 h (male, SUV blood (BL)): 0.316 SUV | SUV at 2 h (male, SUV blood (BL)): 0.052 SUV | SUV at 5 min (male, SUV bone (BO)): 0.12 SUV | SUV at 10 min (male, SUV bone (BO)): 0.243 SUV | SUV at 0.5 h (male, SUV bone (BO)): 0.143 SUV | SUV at 40 min (male, SUV bone (BO)): 0.127 SUV | SUV at 1 h (male, SUV bone (BO)): 0.2 SUV | SUV at 2 h (male, SUV bone (BO)): 0.0384 SUV | SUV at 5 min (male, SUV brain (BR)): 0.0955 SUV | SUV at 10 min (male, SUV brain (BR)): 0.0507 SUV | SUV at 0.5 h (male, SUV brain (BR)): 0.0346 SUV | SUV at 40 min (male, SUV brain (BR)): 0.0272 SUV | SUV at 1 h (male, SUV brain (BR)): 0.0268 SUV | SUV at 2 h (male, SUV brain (BR)): 0.0058 SUV | SUV at 5 min (male, SUV heart (HE)): 0.97 SUV | SUV at 10 min (male, SUV heart (HE)): 0.605 SUV | SUV at 0.5 h (male, SUV heart (HE)): 0.338 SUV | SUV at 5 min (male, SUV kidneys (KI)): 19.2 SUV | SUV at 10 min (male, SUV kidneys (KI)): 14.2 SUV | SUV at 0.5 h (male, SUV kidneys (KI)): 13.6 SUV | SUV at 40 min (male, SUV kidneys (KI)): 13.1 SUV | SUV at 1 h (male, SUV kidneys (KI)): 8.67 SUV | SUV at 2 h (male, SUV kidneys (KI)): 11.5 SUV | SUV at 5 min [1]: 1.01 SUV | SUV at 10 min [1]: 0.919 SUV | SUV at 0.5 h [1]: 0.476 SUV | SUV at 40 min [1]: 0.289 SUV | SUV at 1 h [1]: 0.243 SUV | SUV at 2 h [1]: 0.0668 SUV | SUV at 5 min (male, SUV lungs (LU)): 1.28 SUV | SUV at 10 min (male, SUV lungs (LU)): 1 SUV | SUV at 0.5 h (male, SUV lungs (LU)): 0.566 SUV | SUV at 40 min (male, SUV lungs (LU)): 0.563 SUV | SUV at 5 min (male, SUV muscle (MU)): 0.401 SUV | SUV at 10 min (male, SUV muscle (MU)): 0.507 SUV | SUV at 0.5 h (male, SUV muscle (MU)): 0.116 SUV | SUV at 40 min (male, SUV muscle (MU)): 0.104 SUV | SUV at 1 h (male, SUV muscle (MU)): 0.106 SUV | SUV at 2 h (male, SUV muscle (MU)): 0.0164 SUV | SUV at 5 min (male, SUV pancreas (PA)): 0.472 SUV | SUV at 10 min (male, SUV pancreas (PA)): 0.419 SUV | SUV at 0.5 h (male, SUV pancreas (PA)): 0.261 SUV | SUV at 40 min (male, SUV pancreas (PA)): 0.2 SUV | SUV at 1 h (male, SUV pancreas (PA)): 0.111 SUV | SUV at 2 h (male, SUV pancreas (PA)): 0.0272 SUV | SUV at 5 min (male, SUV red bone marrow (BM)): 0.584 SUV | SUV at 10 min (male, SUV red bone marrow (BM)): 0.543 SUV | SUV at 0.5 h (male, SUV red bone marrow (BM)): 0.262 SUV | SUV at 40 min (male, SUV red bone marrow (BM)): 1.01 SUV | SUV at 1 h (male, SUV red bone marrow (BM)): 1.15 SUV | SUV at 2 h (male, SUV red bone marrow (BM)): 0.154 SUV | SUV at 5 min [2]: 0.731 SUV | SUV at 10 min [2]: 0.5 SUV | SUV at 0.5 h [2]: 0.256 SUV | SUV at 40 min [2]: 0.412 SUV | SUV at 1 h [2]: 0.132 SUV | SUV at 2 h [2]: 0.0313 SUV | SUV at 5 min (male, SUV spleen (SP)): 0.541 SUV | SUV at 10 min (male, SUV spleen (SP)): 0.376 SUV | SUV at 0.5 h (male, SUV spleen (SP)): 0.241 SUV | SUV at 40 min (male, SUV spleen (SP)): 0.205 SUV | SUV at 1 h (male, SUV spleen (SP)): 0.126 SUV | SUV at 2 h (male, SUV spleen (SP)): 0.0652 SUV | decrease of kidney SUV: 40-50% | highest SUV (kidneys): around 12 SUV
